# From IntAct's records for PubMed 21368759
# B1: Adapter protein MecA 1 (Bacillus subtilis), P37958 (parent)
# chain: MEIERINEHTVKFYMSYGDIEDRGFDREEIWYNRERSEELFWEVMDEVHEEEEFAVEGPLWIQVQALDKGLEIIVTKAQLSKDGQKLELPIPEDKKQEPASEDLDALLDDFQKEEQAVNQEEKEQKLQFVLRFGDFEDVISLSKLNVNGSKTTLYSFENRYYLYVDFCNMTDEEVENQLSILLEYATESSISIHRLEEYGKLIISEHALETIKKHFAS
# partner: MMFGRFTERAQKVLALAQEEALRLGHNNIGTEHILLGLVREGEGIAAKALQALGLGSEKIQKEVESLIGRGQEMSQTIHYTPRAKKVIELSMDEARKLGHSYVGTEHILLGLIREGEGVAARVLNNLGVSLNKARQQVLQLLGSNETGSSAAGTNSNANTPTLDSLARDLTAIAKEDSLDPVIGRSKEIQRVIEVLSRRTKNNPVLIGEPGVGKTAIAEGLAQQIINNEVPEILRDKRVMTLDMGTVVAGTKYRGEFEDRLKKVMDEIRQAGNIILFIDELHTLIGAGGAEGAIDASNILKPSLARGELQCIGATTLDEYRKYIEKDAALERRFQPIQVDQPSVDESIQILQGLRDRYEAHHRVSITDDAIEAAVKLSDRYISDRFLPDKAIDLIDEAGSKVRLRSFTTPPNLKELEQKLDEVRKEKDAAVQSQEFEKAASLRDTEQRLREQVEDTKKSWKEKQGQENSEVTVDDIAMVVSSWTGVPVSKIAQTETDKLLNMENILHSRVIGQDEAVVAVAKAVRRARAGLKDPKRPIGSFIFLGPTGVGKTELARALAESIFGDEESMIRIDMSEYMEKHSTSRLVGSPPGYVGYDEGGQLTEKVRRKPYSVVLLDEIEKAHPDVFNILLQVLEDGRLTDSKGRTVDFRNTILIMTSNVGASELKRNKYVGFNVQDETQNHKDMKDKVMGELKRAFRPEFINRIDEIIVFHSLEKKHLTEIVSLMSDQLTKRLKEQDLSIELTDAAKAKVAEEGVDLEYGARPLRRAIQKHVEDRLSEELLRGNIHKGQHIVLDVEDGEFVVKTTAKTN
# Variants of: B1
# Conditions: with clpc_bacsu clpC
row,Variant,effect of a mutation on the interaction
1,MEIERINEHTVKFYMSYGDIEDRGFDREEIWYNRERSEELFWEVMDEVHEEEEFAVEGPLWIQVQALDKGLEIIVTKAQLSKDGQKLELPIPEDKKQEPASEDLDALLDDFQKEEQAVNQEEKEQKLQFVLRFGDFEDVISLSKLNVNGSKTTLYSFENRYYLYVDFCNMTDEEVENQLSILLRYATESSISIHRLEEYGKLIISEHALETIKKHFAS [E184R],disrupting interaction
